Laboratory results published in publication PMC9974061.

Experiments:
[1] = target: galectin-3 (gal-3), recombinant (UniProt P17931)
[2] = target: TSG101, His-tagged recombinant (UniProt Q99816); assay: BLI; Octet RED96; biotinylated ALIX (1 ug/ml), TSG101 (0.5 ug/ml) or gal-3 (1 ug/ml) on streptavidin biosensors; two-fold dilutions of S (280-70 uM) and P domain (144-36 uM); 20 mM HEPES, 150 mM NaCl, 0.005% Tween 20, 2 mg/ml BSA, pH 7.8; 2:1 model
[3] = target: apoptosis-linked gene 2-interacting protein X (ALIX), His-tagged recombinant (UniProt Q8WUM4); assay: as above
Sequence of apoptosis-linked gene 2-interacting protein X (ALIX), His-tagged recombinant (Q8WUM4 whole entry): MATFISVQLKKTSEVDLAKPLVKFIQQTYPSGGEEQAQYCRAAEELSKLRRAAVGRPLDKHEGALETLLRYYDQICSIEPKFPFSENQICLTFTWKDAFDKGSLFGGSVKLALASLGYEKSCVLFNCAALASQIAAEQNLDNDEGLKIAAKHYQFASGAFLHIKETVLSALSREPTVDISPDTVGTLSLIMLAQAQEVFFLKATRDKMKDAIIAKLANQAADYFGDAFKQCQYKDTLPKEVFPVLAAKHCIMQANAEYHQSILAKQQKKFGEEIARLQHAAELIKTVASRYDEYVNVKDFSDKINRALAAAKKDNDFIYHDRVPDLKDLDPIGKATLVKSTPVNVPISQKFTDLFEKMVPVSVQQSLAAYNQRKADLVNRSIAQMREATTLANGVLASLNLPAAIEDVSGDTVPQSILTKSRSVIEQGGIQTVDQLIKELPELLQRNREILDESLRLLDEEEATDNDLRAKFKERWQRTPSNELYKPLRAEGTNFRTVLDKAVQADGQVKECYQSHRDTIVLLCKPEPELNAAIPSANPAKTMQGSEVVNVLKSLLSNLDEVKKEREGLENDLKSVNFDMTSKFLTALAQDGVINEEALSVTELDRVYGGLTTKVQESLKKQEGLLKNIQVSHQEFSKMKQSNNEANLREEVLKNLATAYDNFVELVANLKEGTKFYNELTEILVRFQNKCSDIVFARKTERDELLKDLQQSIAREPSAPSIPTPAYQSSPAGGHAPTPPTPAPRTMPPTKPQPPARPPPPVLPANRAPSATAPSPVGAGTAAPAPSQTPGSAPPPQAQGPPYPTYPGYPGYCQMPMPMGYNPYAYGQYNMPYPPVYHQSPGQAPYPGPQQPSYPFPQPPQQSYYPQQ

Sequence of TSG101, His-tagged recombinant (Q99816 whole entry): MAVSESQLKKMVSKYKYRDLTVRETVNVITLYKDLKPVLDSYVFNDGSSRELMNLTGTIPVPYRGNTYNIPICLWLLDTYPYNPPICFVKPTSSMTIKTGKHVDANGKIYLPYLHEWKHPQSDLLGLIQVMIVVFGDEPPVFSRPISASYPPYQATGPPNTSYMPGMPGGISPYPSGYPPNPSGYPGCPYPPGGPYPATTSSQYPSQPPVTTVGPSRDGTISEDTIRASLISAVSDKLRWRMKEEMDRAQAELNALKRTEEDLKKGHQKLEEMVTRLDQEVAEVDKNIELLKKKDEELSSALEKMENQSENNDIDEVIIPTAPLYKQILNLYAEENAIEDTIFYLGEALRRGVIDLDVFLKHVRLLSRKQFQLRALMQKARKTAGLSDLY
Sequence of galectin-3 (gal-3), recombinant (P17931 whole entry): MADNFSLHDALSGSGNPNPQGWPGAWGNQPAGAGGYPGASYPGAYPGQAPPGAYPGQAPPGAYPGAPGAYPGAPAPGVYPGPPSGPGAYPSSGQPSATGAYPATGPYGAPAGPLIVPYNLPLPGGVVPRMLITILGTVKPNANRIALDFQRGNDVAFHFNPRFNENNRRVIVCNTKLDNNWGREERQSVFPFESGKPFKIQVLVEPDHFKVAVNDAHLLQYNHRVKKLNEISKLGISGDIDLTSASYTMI

| Substance | GII.4 virus (stool isolate) replication in J2 HIEs at 24 h in the presence of anti-gal-3 antibody [1] [% reduction] | Kd [2] [µM] | Kd [3] [µM] |
| --- | --- | --- | --- |
| GII.4 Sydney/2012 virus-like particles (complex) | 98 | – | – |
| GII.4 capsid Shell (S) domain (domain or fragment) | – | 21.5 | 9.92 |
